According to IntAct's records for PubMed 19559761:

Target: ef1a2_human EEF1A2 (UniProt Q05639)
Sequence of UniProt Q05639 (Q05639 whole entry): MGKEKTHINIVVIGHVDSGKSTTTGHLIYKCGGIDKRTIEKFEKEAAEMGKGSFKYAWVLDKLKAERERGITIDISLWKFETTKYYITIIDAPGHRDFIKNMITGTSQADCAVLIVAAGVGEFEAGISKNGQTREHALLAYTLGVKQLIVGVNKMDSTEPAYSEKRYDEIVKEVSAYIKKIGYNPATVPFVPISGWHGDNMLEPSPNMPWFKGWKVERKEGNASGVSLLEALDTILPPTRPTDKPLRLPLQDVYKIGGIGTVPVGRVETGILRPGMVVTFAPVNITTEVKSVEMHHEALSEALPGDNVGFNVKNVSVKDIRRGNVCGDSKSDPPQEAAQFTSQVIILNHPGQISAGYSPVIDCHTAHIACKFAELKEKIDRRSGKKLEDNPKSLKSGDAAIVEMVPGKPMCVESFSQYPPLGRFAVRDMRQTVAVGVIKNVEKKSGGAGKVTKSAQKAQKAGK

effect of a mutation on the interaction: increasing interaction
Substance: Leucine-rich repeat serine/threonine-protein kinase 2 (Homo sapiens), Q5S007 G2019S
